# Data: patent US11672846B2, “Soluble bacterial and fungal proteins and methods and uses thereof in inhibiting and dispersing biofilm” (priority 2014, dated 2023)
# “Also recorded” adds a separate entry of the source.
# How the values were obtained:
# [1] = test system: P. aeruginosa PAO1 pBADpsl; assay: Inhibition of Psl biofilm formation in static culture (crystal violet); format: cell-based, Pseudomonas aeruginosa; details: specificity control
# [2] = test system: Psl biofilms of P. aeruginosa PAO1 pBADpsl; assay: Dispersal of pre-formed Psl biofilms (crystal violet); format: cell-based, Pseudomonas aeruginosa
# A. fumigatus GAG biofilm = assay: Inhibition of GAG-dependent A. fumigatus biofilm formation (crystal violet); format: cell-based; details: 20 h in Brian media, crystal violet
# [3] = Reducing sugar assay on purified GAG; format: biochemical, A. fumigatus
# Method: (§1) Crude GAG was isolated from A. fumigatus biofilms. 200 μL GAG aliquots were centrifuged to pellet the gelatinous fraction. The pellets were washed twice with 350 μL PBS. The wash procedure included vortexing for 5 min, sonicated in a bath for 3 min, and manual mixing by pipetting to reach homogeneity. The final pellet was resuspended in 200 μL of PBS. Samples were treated with 10-20 μM protein and incubated at 26° C. Samples were taken at 24 h. GAG hydrolysis was quantified using a reducing sugar assay as described previously (Anthon & Barrett 2002) with slight modifications. Briefly, 20 μL of enzyme reaction was mixed with 20 μL of 0.5 M NaOH and 20 μL of MBTH/DTT solution (1.5 mg/L 3-methyl-2-benzothiazolinone hydrazine (MBTH) and 0.5 mg/L DTT). The samples were incubated at 80° C. for 15 min before the addition of 40 μL of acidic iron reagent (0.5% (FeNH4(SO4)2).12 H2O, 0.5% sulfamic acid, and 0.25 N HCl). Samples were diluted two-fold in water, before the absorbance was quantified at 620 nm.
# [4] = Reducing sugar assay, substrate specificity; format: biochemical
# Method: as §1, with “[…] […]” for “Crude GAG was isolated from A. fumigatus biofilms. 200 μL GAG aliquots were centrifuged to pellet the gelatinous fraction.”, “GAG hydrolysis was quantified using a reducing sugar assay as described previously (Anthon & Barrett 2002) with slight modifications.” left out
# [5] = test system: pre-formed A. fumigatus GAG biofilms; format: cell-based; details: crystal violet
# [6] = test system: Pel-dependent biofilms from P. aeruginosa PAO1 ΔwspFΔpslpBADpel; assay: Pel biofilm dispersal by enzyme in Pluronic F-127 gel; format: cell-based, Pseudomonas aeruginosa; details: 100, 200 and 500 μg/mL in 20% Pluronic F-127, 1 h
# Method: Poloxamer 407 (trade name Pluronic® F-127 or PF-127) is a hydrophilic non-ionic surfactant has been used as a drug delivery system for a number of routes of administration (Escobar-Chavez et al 2006). A 20% gel of PF-127 was prepared by mixing 1×PBS with Pluronic® F-127 at 4° C. until the polymer was dissolved. PelA47-303 was added at three concentrations; 100 μg/mL, 200 μg/mL and 500 μg/mL to this solution. Pel-dependent biofilms from strain P. aeruginosa PAO1 ΔwspFΔpslpBADpel were formed as described in Example 8. The buffer, gel and gels containing various concentrations of PelA47-303 were applied to the biofilm.
# [7] = purified protein
# [8] = test system: A549 pulmonary epithelial cell line injured by A. fumigatus; assay: Chromium release epithelial cell damage assay; details: 0.5 μM, 16 h
# Method: The immortalized airway epithelial cell line A549 was loaded with chromium-51 by incubating monolayers grown in 24-well tissue culture plates with 3 mCi of ^51Cr at 37° C. in 5% CO2 for 24 h. Excess chromium was removed by washing with Hank's Balanced Salt Solution (HBSS). […] For testing germ tubes, conidia were grown for 7 h in SAB media at 37° C., then the fungus was collected and resuspended in DF12K media before 0.5 μM of hydrolase was added. The germ tubes were incubated with hydrolase for 1 h before being added to the A549 cells. After 16, 20 and 24 h of co-incubation, an aliquot of the medium above the cells was retrieved and replaced with fresh media. The cells were then lysed with 6 N NaOH and the lysate collected. The ^51Cr content of the medium and lysates was then measured in a gamma counter and the extent of epithelial cell damage was calculated as a function of the degree of ^51Cr release. Each strain was tested in triplicate, and all results were corrected for spontaneous chromium release by uninfected epithelial cells.
# The methodology for prevention of epithelial cell damage caused by A. fumigatus using Sph352-298 is identical to that previously described in Example 19 for the use PelA47-303.
# [9] = test system: Pel biofilms of P. aeruginosa PAO1 ΔwspFΔpslpBADpel; assay: Dispersal of pre-formed Pel biofilms (crystal violet); details: 38 μM and 19 μM, 2 h
# Text: The methodology to generate pre-formed Pel biofilms is identical to that of Psl biofilms, described in Example 4 with the exception that the strain used is P. aeruginosa PAO1 ΔwspFΔpslpBADpel.
# [10] = test system: PNAG-overproducing E. coli biofilms; assay: Dispersal of pre-formed PNAG-dependent E. coli biofilms
# Method: Bacterial cultures expressing Psl were inoculated as stated above and were grown at 37° C. overnight with shaking at 200 rpm. All cultures were diluted in 1:100 in LB and arabinose was added to a final concentration of 0.5% (w/v) to induce Psl biosynthesis. Media containing the Psl-producing cultures were supplemented with 200 μg/mL ampicillin and 100 μg/mL kanamycin. The cultures were incubated statically for 24 h at 26° C. to allow for biofilm formation. After incubation non-adherent cells and media were removed by washing the plate with deionized water three times. The wells were filled with 95 μL of 100 mM sodium HEPES buffer pH 7.0 followed by 5 μL of varying concentrations of each hydrolytic enzyme (2 nM-5 μM). Reactions were allowed to proceed for up to 60 min at 25° C. on a rotating nutator at which time, the reaction was quenched by washing the plates with deionized water. The wells were stained with 200 μL of 0.1% (w/v) crystal violet for 10 min, and washed with water three times. Crystal violet dye from Psi cultures was solubilized in 100 μL of 95% ethanol for 10 min with rotation, after which time the absorbance was measured at 595 nm using a SpectraMax M2 from Molecular Devices (Sunnyvale, Calif.). The amount of biofilm is proportional to the absorbance from staining with crystal violet (Merritt et al 2005). All reactions were completed in at least triplicate and 100 mM sodium HEPES buffer pH 7.0 was used as an untreated control. The addition of 2.5 mg/mL kanamycin to culture prior to biofilm formation was used as a positive control as no cell growth occurs.
# PNAG-overproducing E. coli was grown at 37° C. overnight in LB broth supplement with 200 ug/mL ampicillin and 100 ug/mL kanamycin with shaking at 200 rpm. An E. coli μgaABCD knockout strain was used as a non-biofilm forming control for background straining.
# [11] = test system: P. aeruginosa PAO1 ΔwspFΔpslpBADpel biofilms with differentiated HL-60 cells; assay: HL-60 neutrophil killing of P. aeruginosa biofilm (CFU plating)
# Method: Overnight cultures of P. aeruginosa PAO1 ΔwspFΔpslpBADpel were diluted to an OD600 of 0.05 in LB+0.5% arabinose and inoculated in a 96 well tissue culture-treated plate at a final volume of 100 μl/well. The plate was incubated statically at 28° C. for 20 h. Supernatants were aspirated and 100 μL of phenol red-free RPMI+10% Fetal Bovine Serum (FBS) containing 0.5 μM of PelA47-303 was added. The plate was incubated at room temperature on a Nutator for 1 h. Following pretreatment with hydrolase, 100 μL RPMI+10% FBS containing 6×10^6 differentiated HL-60 cells were added to the wells, and plate was incubated for 90 min at 37° C., 5% CO2. Wells were aspirated and supernatant was diluted between 1/200000 and 1/400000, and plated (50 μl) onto LB agar. To aspirated wells, 200 μL of “disruption solution” (PBS containing 2 μM of PelA47-303 and 2 μM PslG31-442) was added and plate was incubated at room temperature on the Nutator for 1-1.5 h. Wells were aspirated, diluted and plated onto LB agar as above.
# [12] = test system: P. aeruginosa PAO1 ΔwspFΔpslpBADpel; assay: Inhibition of Pel biofilm formation in static culture (crystal violet); details: static culture
molecule,measurement,setting,value
"PelA47-303: soluble PelA hydrolase domain, residues 47-303, P. aeruginosa PAO1, SEQ ID NO: 12 (protein, listed as Pseudomonas aeruginosa) GGPSSVAFWYAERPPLAELSQFDWVVLEAAHLKPADVGYLKEQGSTPFAYLSVGEFDGDAAAIADSGLARGKSAVRNQAWNSQVMDLAAPSWRAHLLKRAAELRKQGYAGLFLDTLDSFQLQAEERREGQRRALASFLAQLHRQEPGLKLFFNRGFEVLPELPGVASAVAVESIHAGWDAAAGQYREVPQDDRDWLKGHLDALRAQGMPIVAIDYLPPERRDEARALAARLRSEGYVPFVSTPALDYLGVSDVEVQP",inhibition of Psl biofilm formation (in words),[1],did not inhibit Psl biofilm formation
same,dispersal of pre-formed Psl biofilm (in words),[2],did not result in the loss of the Psl-dependent biofilm
same,concentration sufficient to prevent GAG biofilm formation,A. fumigatus GAG biofilm,≥ 2 µM
same,"GAG hydrolysis, reducing ends (in words)","[3]; 10-20 μM protein, 26° C., 24 h",number of reducing ends in solution increased
same,reducing ends produced relative to Sph352-298,[3]; under assay conditions,~2 fold
same,hydrolysis of chitin and chitosan,[4],not significant over background hydrolysis
same,dispersal of pre-formed GAG biofilm (in words),[5],elimination of the GAG biofilm
same,dispersal of Pel-dependent biofilm by enzyme in gel,[6],able to disperse the biofilm; also recorded: successfully dispersed the biofilm
same,concentration to which the protein could be concentrated,[7],8000 to 10000 µg/mL
same,"epithelial cell injury by A. fumigatus, chromium release",[8],blocked the ability of A. fumigatus to induce pulmonary epithelial cell injury
same,dispersal of pre-formed Pel biofilm (in words),[9],successfully dispersed the Pel biofilm; also recorded: biofilm dispersal after 2 hours
same,dispersal of PNAG-dependent biofilms (in words),[10],had no affect
same,degree of microbial killing by HL-60 neutrophil cell line,"[11]; 0.5 μM enzyme pretreatment, neutrophils alone approximately 22%",~42%
same,bacterial killing relative to neutrophils alone,[11]; enzyme with neutrophils,~2 fold
same,enzyme concentration that prevented Pel biofilm formation,[12],500 nM
